The text below walks through data of patent US6858210B1, “Therapeutic and diagnostic domain 1 β2GPI polypeptides and methods of using same” (La Jolla Pharmaceutical Co., priority 1998, dated 2005).

The IC50 is the concentration that inhibits the measured activity by half. A low value points to greater potency in that assay.

Bounds are passed on as bounds.

The subject of assay [1] is antiphospholipid antibody in plasma from patient 6501. Nature of the assay: Competitive antibody binding ELISA with patient plasma on β2GPI coated plates. Set-up: species or system human. The note with it: plasma patient 6501, 1:200. As to the method:
Nunc Maxisorp microplates (Nalge Nunc International, Denmark) were coated with 100 μL/well of β2GPI at 2.5 μg/mL in PBS, incubated for 2 hours at room temperature, and blocked for 2 hours at room temperature with 250 μl/well of 2% nonfat milk with […] (Sigma Chemical Co.). […] After incubation for one hour at room temperature the plates were washed 5× with TBS. To each well was added 100 μL of alkaline phosphatase-conjugated anti-human IgG, gamma chain specific (Zymed) diluted 1:1000 in 2% nonfat milk with 0.4% Tween-80. After one hour at room temperature the plates were washed 5× with TBS. To each well was added 100 μl PPMP chromogenic substrate solution for color development at room temperature. Optical absorbance per well was determined at A550nm in a commercial microplate reader (Bio-Tek Instruments EL3 11).
(ELISA stands for enzyme-linked immunosorbent assay.)

The target in assay [2] is affinity purified β2GPI-dependent antiphospholipid antibody from patient 6509. Nature of the assay: comp. inhibition ELISA.
The target in assay [3] is affinity purified β2GPI-dependent antiphospholipid antibody from patient 6203. Nature of the assay: comp. inhibition ELISA.
Assay [4] addresses β2GPI-dependent antiphospholipid antibody from patient 6501. Nature of the assay: comp. inhibition ELISA.

B1: 1----: recombinant β2GPI protein with domain 1 only (SEQ ID NO:4 region), His6 tail (protein)
chain: GRTCPKPDDLPFSTVVPLKTFYEPGEEITYSCKPGYVSRGGMRKFICPLTGLWPINTLKCTPRVGHHHHHH
On to B1, for which the “competition for antiphospholipid antibody binding to β2GPI” value in assay [1] is on record as “Competitive binding is also exhibited”.

B2: recombinant β2GPI domain 5 with GlyHis6 (----5) (protein)
chain: GRASCKLPVKKATVVYQGERVKIQEKFKNGMLHGDKVSFFCKNKEKKCSYTEDAQCIDGTIEVPKCFKEHSSLAFWKTDASDVKPCGHHHHHH
As to B2, the half-maximal inhibitory concentration (IC50) in assay [2], in assay [3] and in assay [4] was more than 47 µM in each case. Moreover, the figures for the Max inhibition in assay [2], in assay [3] and in assay [4] were 10%, 5% and 10%, respectively.
